According to paper PMC4932455, “Characterization of group II chaperonins from an acidothermophilic archaeon Picrophilus torridus” (FEBS Open Bio, 2016):
Substitutions are numbered along the chain they refer to. Each block holds one compound with its values, some of them ahead of it.

How the values were obtained:
PtoCPNα [1] = molecular target: T1, PtoCPNα (Picrophilus oshimae, UniProt Q6L132, D139G); test: ATP-dependent refolding of acid-denatured GFP; assay type: biochemical; details: 1 mM ATP, 50 mM Tris-HCl pH 7.5, 25 mM MgCl2, 100 mM KCl, 50 °C (figure legend: 60 °C)
T1 construct: gene PTO0735; full length, untagged, pET23b in E. coli BL21(DE3); reassembled homo-oligomer (hexadecamer, 914 kDa); D139G from cloning; forward primer encodes MITGQTPILILKEGTERQ; locus assigned by printed order (other locus PTO1195)
T1 sequence (Q6L132 1-546 D139G): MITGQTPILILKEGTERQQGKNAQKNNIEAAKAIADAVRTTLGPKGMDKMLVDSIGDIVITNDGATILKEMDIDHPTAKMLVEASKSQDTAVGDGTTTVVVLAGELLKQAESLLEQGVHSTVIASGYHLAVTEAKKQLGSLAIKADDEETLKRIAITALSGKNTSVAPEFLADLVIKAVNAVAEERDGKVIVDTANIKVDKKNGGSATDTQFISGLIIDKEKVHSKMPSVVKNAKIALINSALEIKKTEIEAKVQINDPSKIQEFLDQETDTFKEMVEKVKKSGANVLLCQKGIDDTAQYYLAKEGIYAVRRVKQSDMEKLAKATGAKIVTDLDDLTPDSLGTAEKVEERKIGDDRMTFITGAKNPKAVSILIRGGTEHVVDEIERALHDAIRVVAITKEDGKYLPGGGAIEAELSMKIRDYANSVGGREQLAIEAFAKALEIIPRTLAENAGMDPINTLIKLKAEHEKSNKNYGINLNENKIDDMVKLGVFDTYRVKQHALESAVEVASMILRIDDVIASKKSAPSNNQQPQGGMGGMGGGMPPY

PtoCPNα [2] = molecular target: T2, PtoCPNα (Picrophilus oshimae, UniProt Q6L132, D139G/S260C/C290S); test: fluorescence change of fluorescein on Cys260; assay type: binding; details: 1 mM ATP, 50 nM chaperonin, 50 mM Tris-HCl pH 7.5, 25 mM MgCl2, 100 mM KCl, 60 °C; protein labelled with fluorescein 5-maleimide
T2 construct: gene PTO0735; full length, untagged, pET23b in E. coli BL21(DE3); reassembled homo-oligomer (hexadecamer, 914 kDa); D139G from cloning; forward primer encodes MITGQTPILILKEGTERQ; locus assigned by printed order (other locus PTO1195)
T2 sequence (Q6L132 1-546 D139G/S260C/C290S): T1 sequence (Q6L132 1-546 D139G) with S260C, C290S

[3] = molecular target: α type group II CPN of Picrophilus torridus (Picrophilus torridus); test: SEC-MALS; WTC-100S5 column, 25 °C, 50 mM Tris-HCl pH 7.5, 25 mM MgCl2, 0.2 mM ATP, 300 mM (NH4)SO4, 1 mM DTT, 1.0 mL/min; purified oligomers
[4] = molecular target: Green fluorescent protein, acid-denatured [GFP: P42212]; test: GFP releasing assay (recovery of GFP fluorescence, fit of two consecutive steps); acid-denatured GFP captured by 400 nM PtoCPNα at 60 °C for 5 min in HKM buffer with 1 mM DTT, then diluted 10-fold into the same buffer at 30 °C; k1 is the release of denatured GFP
[5] = molecular target: Green fluorescent protein, acid-denatured [GFP: P42212]; test: GFP releasing assay (recovery of GFP fluorescence, fit of two consecutive steps); acid-denatured GFP captured by 400 nM PtoCPNα at 60 °C for 5 min in HKM buffer with 1 mM DTT, then diluted 10-fold into the same buffer at 50 °C; k1 is the release of denatured GFP
[6] = molecular target: β type group II CPN of Picrophilus torridus (Picrophilus torridus); test: SEC-MALS; WTC-100S5 column, 25 °C, 50 mM Tris-HCl pH 7.5, 25 mM MgCl2, 0.2 mM ATP, 300 mM (NH4)SO4, 1 mM DTT, 1.0 mL/min; purified oligomers

Compound: Nc1ncnc2c1ncn2[C@@H]1O[C@H](COP(=O)(O)OP(=O)(O)OP(=O)(O)O)[C@@H](O)[C@H]1O [ATP]
ATP-dependent refolding of acid-denatured GFP (PtoCPNα [1]): enhances its refolding in an ATP‐dependent manner | % decrease in maximal fluorescence intensity (PtoCPNα [2]): ~ 15.5%

stoichiometry N [3]: 16 | koff [4]: 0.478 s⁻¹ | koff [5]: 0.118 s⁻¹
Compound: α type group II CPN of Picrophilus torridus (complex)

stoichiometry N [6]: 14
Compound: β type group II CPN of Picrophilus torridus (complex)
